The assay concerns the target T1, RPP29 (coexpressed with RMP24 in bacteria) (human, UniProt O95707 1-220).
T1 construct: RPP29 (POP4), human; codon-optimized bicistronic cassette with C18orf21/RMP24 in pGEX-6P-1; The pGEX-6P-1 vector adds GST to one of the two chains; Elution was by PreScission protease or by reduced glutathione; also called POP4; source: E. coli BL21-DE3, coexpressed with RMP24, purified (Glutathione-Agarose, S200 increase)
T1 sequence: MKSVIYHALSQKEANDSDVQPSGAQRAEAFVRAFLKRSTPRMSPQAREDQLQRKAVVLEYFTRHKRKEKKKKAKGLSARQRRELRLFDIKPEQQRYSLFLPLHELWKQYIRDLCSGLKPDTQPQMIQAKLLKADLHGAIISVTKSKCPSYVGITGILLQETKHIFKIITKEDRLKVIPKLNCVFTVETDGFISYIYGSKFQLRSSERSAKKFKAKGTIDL
Kind of assay: SEC; RMP24 and RPP29 coexpressed in E. coli, isolated on Glutathione-Agarose, then passed over a Superdex S200 increase 10/300 GL column in 25 mM Tris HCl pH 8, 100 mM NaCl, 1 mM DTT; peak fractions on Coomassie-stained SDS–PAGE and LC–MS. As to conditions: both partners purified. (In general: In gel filtration, larger molecules generally elute earlier.)

B1: RMP24 (coexpressed with RPP29 in bacteria) (natural protein, human, UniProt Q32NC0 1-220, looked up)
chain: MRQKHYLEAAARGLHDSCPGQARYLLWAYTSSHDDKSTFEETCPYCFQLLVLDNSRVRLKPKARLTPKIQKLLNREARNYTLSFKEAKMVKKFKDSKSVLLITCKTCNRTVKHHGKSRSFVSTLKSNPATPTSKLSLKTPERRTANPNHDMSGSKGKSPASVFRTPTSGQSVSTCSSKNTSKTKKHFSQLKMLLSQNESQKIPKVDFRNFLSSLKGGLLK
notes: C18orf21 (RMP24), human; codon-optimized bicistronic cassette with RPP29 in pGEX-6P-1; The pGEX-6P-1 vector adds GST to one of the two chains; also called C18orf21; full-length RMP24; source: E. coli BL21-DE3, coexpressed with RPP29, purified (Glutathione-Agarose, S200 increase)
For the molecule B1, the binding result is “binds”.

For the origin of these results see article PMC12819141, “RNase MRP subunit composition and role in 40S ribosome biogenesis” (Nature Structural & Molecular Biology, 2025).
